Molecular target: T1, Human TROP2 Protein, His Tag (human, UniProt P09758 27-274)
T1 construct: Bought protein; also called TACSTD2; not shown: His tag
T1 sequence (looked up): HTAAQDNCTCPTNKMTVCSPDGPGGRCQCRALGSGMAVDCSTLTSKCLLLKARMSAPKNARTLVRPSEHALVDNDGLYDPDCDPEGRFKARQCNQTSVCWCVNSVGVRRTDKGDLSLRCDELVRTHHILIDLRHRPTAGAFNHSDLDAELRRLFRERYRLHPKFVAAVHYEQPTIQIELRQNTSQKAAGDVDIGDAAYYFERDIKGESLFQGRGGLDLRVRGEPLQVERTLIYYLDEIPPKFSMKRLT
Assay: BLI (Octet)

B1: MYT11644 (antibody, V domains shown)
VH: QVQLVQSGAEVKKPGASVKVSCKASGYTFTTAGHQWVRQAPGQGLEWMGWINTHSGVPKYAEDFKGRVTISADTSTSTAYLQLSSLKSEDTAVYYCARSGFGSSYWYFDVWGQGTLVTVSS
VL: DIQMTQSPSSLSASVGDRVTITCKASQDVSTAVAWYQQKPGKAPKLLIYSASYRYTGVPSRFSGSGSGTDFTLTISSLQPEDFAVYYCQQHYITPLTFGQGTKLEIK
notes: IgG from supernatant; His at HCV position 34; also called datopotamab variant H1 09
binding result: binds

B2: MYT11646 (antibody, V domains shown)
VH: QVQLVQSGAEVKKPGASVKVSCKASGYTFTTAGMQWVRQAPGQGLEWMGHINTHSGVPKYAEDFKGRVTISADTSTSTAYLQLSSLKSEDTAVYYCARSGFGSSYWYFDVWGQGTLVTVSS
VL: DIQMTQSPSSLSASVGDRVTITCKASQDVSTAVAWYQQKPGKAPKLLIYSASYRYTGVPSRFSGSGSGTDFTLTISSLQPEDFAVYYCQQHYITPLTFGQGTKLEIK
notes: IgG from supernatant; His at HCV position 50; also called datopotamab variant H2 01
binding result: binds

B3: MYT11650 (antibody, V domains shown)
VH: QVQLVQSGAEVKKPGASVKVSCKASGYTFTTAGMQWVRQAPGQGLEWMGWINTASGVPKYAEDFKGRVTISADTSTSTAYLQLSSLKSEDTAVYYCARSGFGSSYWYFDVWGQGTLVTVSS
VL: DIQMTQSPSSLSASVGDRVTITCKASQDVSTAVAWYQQKPGKAPKLLIYSASYRYTGVPSRFSGSGSGTDFTLTISSLQPEDFAVYYCQQHYITPLTFGQGTKLEIK
notes: IgG from supernatant; Ala at HCV position 54 (starting residue His); also called datopotamab variant H2 05
binding result: binds

B4: MYT11649 (antibody, V domains shown)
VH: QVQLVQSGAEVKKPGASVKVSCKASGYTFTTAGMQWVRQAPGQGLEWMGWINHHSGVPKYAEDFKGRVTISADTSTSTAYLQLSSLKSEDTAVYYCARSGFGSSYWYFDVWGQGTLVTVSS
VL: DIQMTQSPSSLSASVGDRVTITCKASQDVSTAVAWYQQKPGKAPKLLIYSASYRYTGVPSRFSGSGSGTDFTLTISSLQPEDFAVYYCQQHYITPLTFGQGTKLEIK
notes: IgG from supernatant; His at HCV position 53; also called datopotamab variant H2 04
binding result: binds

B5: MYT11651 (antibody, V domains shown)
VH: QVQLVQSGAEVKKPGASVKVSCKASGYTFTTAGMQWVRQAPGQGLEWMGWINTHHGVPKYAEDFKGRVTISADTSTSTAYLQLSSLKSEDTAVYYCARSGFGSSYWYFDVWGQGTLVTVSS
VL: DIQMTQSPSSLSASVGDRVTITCKASQDVSTAVAWYQQKPGKAPKLLIYSASYRYTGVPSRFSGSGSGTDFTLTISSLQPEDFAVYYCQQHYITPLTFGQGTKLEIK
notes: IgG from supernatant; His at HCV position 55; also called datopotamab variant H2 06
binding result: binds

B6: MYT11648 (antibody, V domains shown)
VH: QVQLVQSGAEVKKPGASVKVSCKASGYTFTTAGMQWVRQAPGQGLEWMGWIHTHSGVPKYAEDFKGRVTISADTSTSTAYLQLSSLKSEDTAVYYCARSGFGSSYWYFDVWGQGTLVTVSS
VL: DIQMTQSPSSLSASVGDRVTITCKASQDVSTAVAWYQQKPGKAPKLLIYSASYRYTGVPSRFSGSGSGTDFTLTISSLQPEDFAVYYCQQHYITPLTFGQGTKLEIK
notes: IgG from supernatant; His at HCV position 52; also called datopotamab variant H2 03
binding result: binds

B7: MYT11652 (antibody, V domains shown)
VH: QVQLVQSGAEVKKPGASVKVSCKASGYTFTTAGMQWVRQAPGQGLEWMGWINTHSHVPKYAEDFKGRVTISADTSTSTAYLQLSSLKSEDTAVYYCARSGFGSSYWYFDVWGQGTLVTVSS
VL: DIQMTQSPSSLSASVGDRVTITCKASQDVSTAVAWYQQKPGKAPKLLIYSASYRYTGVPSRFSGSGSGTDFTLTISSLQPEDFAVYYCQQHYITPLTFGQGTKLEIK
notes: IgG from supernatant; His at HCV position 56; also called datopotamab variant H2 07
binding result: binds

B8: MYT11647 (antibody, V domains shown)
VH: QVQLVQSGAEVKKPGASVKVSCKASGYTFTTAGMQWVRQAPGQGLEWMGWHNTHSGVPKYAEDFKGRVTISADTSTSTAYLQLSSLKSEDTAVYYCARSGFGSSYWYFDVWGQGTLVTVSS
VL: DIQMTQSPSSLSASVGDRVTITCKASQDVSTAVAWYQQKPGKAPKLLIYSASYRYTGVPSRFSGSGSGTDFTLTISSLQPEDFAVYYCQQHYITPLTFGQGTKLEIK
notes: IgG from supernatant; His at HCV position 51; also called datopotamab variant H2 02
binding result: binds

Source: patent US20260274985A1 (MYTHIC THERAPEUTICS, published 2026)
